Reference: publication doi:10.1101/2025.03.14.642698

Columns and labels:
[1] = molecular target: Ldb16 (1-133 ΔH)-FLAG, genomically expressed (S. cerevisiae) (UniProt P25587); experiment: co-IP
[2] = molecular target: Ldb16 (1-133 6A)-FLAG, genomically expressed (S. cerevisiae) (UniProt P25587); experiment: co-IP

Row | Ldo co-immunoprecipitation compared to Ldb16 1-133 (% lower than 1-133) [1] | Ldo co-immunoprecipitation compared to Ldb16 1-133 (% lower than 1-133) [2] | Binder
1 | 50 | 50 | Ldo16-HA, endogenously tagged (natural protein) MVSTATFFFFVYLTLFVVIGFFSSLFIIPLLGISFVFAIGVVSFGFCSNMSFKMAQLIYVRADAFLKKVLDKMALQTQPAQLQEPQEPLSTLRPVSNPTIPSPLRQTARPSKFVTEEDVIFEPVSAQSAIARSLETTANKAGNKFQLS
2 | 50 | 50 | Ldo45-HA, endogenously tagged (natural protein) MAARNRRKNNKKKSLLVTSAAQEKNATYVLVAEELHKKTIDLNMGTETPLTENHENPIPAKEFKHQQKLEPIDEHDDGEDELSIKFKSMTKSSGPITEAEVQKLLLSYAFTSAAIQEDENEKESRHYPIKPPSPSASSLSAYFQSFVEKCKQVFYNFSLQTVEKLNALQNSLYEVFWIIFIYLNYWFPNVGDYVSNTFGQQDSIIIRISLSKSHFRALREKSSQKVQQAVKNIYFCFQEKPYLTAFKVSFAIGLVIPCSLLFLIMVSTATFFFFVYLTLFVVIGFFSSLFIIPLLGISFVFAIGVVSFGFCSNMSFKMAQLIYVRADAFLKKVLDKMALQTQPAQLQEPQEPLSTLRPVSNPTIPSPLRQTARPSKFVTEEDVIFEPVSAQSAIARSLETTANKAGNKFQLS
